Experimental data taken from publication PMC3257521 (Biochemistry, 2011).

Columns and labels:
Pnc1 [1] = molecular target: T1, Pnc1 (Saccharomyces cerevisiae, UniProt P53184); assay type: biochemical, S. cerevisiae
[2] = tested on: nicotinamidase from S. cerevisiae; conditions: S. cerevisiae Pnc1, French et al.; cited from earlier work
[3] = molecular target: nicotinamidase from Tortula cremoris; conditions: cited from earlier work
[4] = molecular target: nicotinamidase from Fleischmann’s yeast; conditions: cited from earlier work
Pnc1 [5] = molecular target: T1, Pnc1; assay: Pnc1 competitive inhibition; assay type: biochemical, S. cerevisiae; conditions: for inhibition pattern: double-reciprocal analysis versus nicotinamide
[6] = molecular target: nicotinamidase from M. lysodeikticus; conditions: cited from earlier work
Pnc1 [7] = molecular target: T1, Pnc1; assay: Effect of EDTA or ZnCl2 on Pnc1 activity; assay type: biochemical, S. cerevisiae; conditions: data not shown
Pnc1 [8] = molecular target: T1, Pnc1; assay: Product inhibition by ammonium ion, HPLC assay; assay type: biochemical, S. cerevisiae; conditions: for inhibition pattern: versus nicotinamide, data not shown
S. cerevisiae Pnc1 = conditions: cited from earlier work
[9] = molecular target: nicotinamidase from Mycobacterium tuberculosis; conditions: cited from earlier work
Pnc1 [10] = molecular target: T1, Pnc1; assay: HPLC assay of substrate activity; assay type: biochemical, S. cerevisiae; conditions: for kcat: HPLC assay, no activity above detection limit of 10^−5 s^−1
Pnc1 [11] = molecular target: T1, Pnc1; conditions: 100 mM ammonium chloride and 5 mM nicotinic acid, 5 µM Pnc1, 150 minutes, pH 7.5; no nicotinamide detected
Pnc1 [12] = molecular target: T1, Pnc1; assay: 15N kinetic isotope effect with substrates; assay type: biochemical, S. cerevisiae
Pnc1 WT or mutant [13] = assay: 13C kinetic isotope effect of Pnc1 mutants; assay type: biochemical, S. cerevisiae; conditions: substrate nicotinamide
Pnc1 WT or mutant [14] = assay: Steady-state kinetic parameters of Pnc1 mutants, enzyme-coupled assay; assay type: biochemical, S. cerevisiae; conditions: substrate nicotinamide; for kcat: pH 7.5
[15] = substrate: NC(=O)c1cccnc1; assay type: biochemical, S. cerevisiae; conditions: other: substrate of Pnc1, pH 7.5, 25.0 °C
[16] = substrate: Cc1cncc(C(N)=O)c1; assay type: biochemical, S. cerevisiae; conditions: other: substrate of Pnc1, pH 7.5, 25.0 °C
[17] = substrate: NC(=S)c1cccnc1; assay type: biochemical, S. cerevisiae; conditions: other: substrate of Pnc1, pH 7.5, 25.0 °C
[18] = substrate: NC(=O)c1ccccc1; assay type: biochemical, S. cerevisiae; conditions: other: substrate of Pnc1, pH 7.5, 25.0 °C
[19] = substrate: NC(=O)c1cnccn1; assay type: biochemical, S. cerevisiae; conditions: other: substrate of Pnc1, pH 7.5, 25.0 °C
Pnc1 WT or mutant [20] = assay: 15N kinetic isotope effect of Pnc1 mutants; assay type: biochemical, S. cerevisiae; conditions: substrate nicotinamide

Molecule: C[n+]1cccc(C(N)=O)c1 [1-methylnicotinamide]
- fold decreased kcat/Km compared to nicotinamide (Pnc1 [1]): 8400 fold
- substrate activity [2]: no activity

Molecule: CC(=O)c1cccnc1 [3-acetylpyridine]
- Ki [3]: 305 µM
- Ki [4]: 65 µM
- Ki (Pnc1 [5]): 316 ± 101 µM
- inhibition pattern (Pnc1 [5]): competitive inhibition
- Ki [6]: 160 µM

Molecule: O=C(O)CN(CCN(CC(=O)O)CC(=O)O)CC(=O)O [EDTA, ethylenediaminetetraacetic acid]
- inhibition of Pnc1 (Pnc1 [7]; 10 mM): did not inhibit

Molecule: [Cl-].[Cl-].[Zn+2] [ZnCl2]
- effect on activity of wild type Pnc1 (Pnc1 [7]; 2 mM): failed to increase activity

Molecule: Cl.N [ammonium chloride]
- concentration required for inhibition (Pnc1 [8]): greater than 10 mM
- inhibition pattern (Pnc1 [8]): non-competitive inhibition
- inhibition pattern (Pnc1 [8]; listed as ammonium ion): non-competitive inhibition patterns

Molecule: O=Cc1ccccc1 [benzaldehyde]
- Ki (Pnc1 [5]): 20600 ± 5700 µM
- fold less potent inhibitor compared to nicotinaldehyde (Pnc1 [5]): 22,000 fold
- Ki [6]: 1800 µM

Molecule: O=Cc1cccnc1 [nicotinaldehyde]
- Ki (S. cerevisiae Pnc1): 1.4 µM
- Ki (Pnc1 [5]): 0.94 ± 0.35 µM
- Ki fold below the Km value of nicotinamide (Pnc1 [5]; vs Km 9.6 µM for nicotinamide): 10 fold
- Ki [6]: 0.018 µM
- Ki [9]: 0.29 µM

Molecule: NC(=O)c1ccc[n+]([C@@H]2O[C@H](COP(=O)([O-])O)[C@@H](O)[C@H]2O)c1 [nicotinamide mononucleotide (NMN^+), nicotinamide mononucleotide]
- substrate activity (Pnc1 [10]): not substrates
- kcat (Pnc1 [10]): < 10^−5 ^c s^−1

Molecule: O=C(O)c1cccnc1 [nicotinic acid]
- reverse reaction rate (upper estimate) (Pnc1 [11]): < 10^−5 s^−1
- inhibition (S. cerevisiae Pnc1; French et al.): no inhibition
- Ki (Pnc1 [5]): 120 ± 19 µM
- inhibition pattern (Pnc1 [5]): competitive inhibition patterns

Molecule: O=C(O)c1cnccn1 [pyrazinoic acid]
- Ki (Pnc1 [5]): 6700 ± 1700 µM
- fold higher Ki value compared to nicotinic acid (Pnc1 [5]): 56 fold
- inhibition pattern (Pnc1 [5]): competitive inhibition patterns

Molecule: NC(=S)c1cccnc1 [thionicotinamide]
- increase in 15N KIE value compared to nicotinamide (Pnc1 [12]): 1.4%
- 15N KIE (Pnc1 [12]; on V/K, pH 7.5): 1.0262 ± 0.0019

Molecule: NC(=O)C1=CN([C@@H]2O[C@H](COP(=O)(O)OP(=O)(O)OC[C@H]3O[C@@H](n4cnc5c(N)ncnc54)[C@H](O)[C@@H]3O)[C@@H](O)[C@H]2O)C=CC1 [β-nicotinamide adenine dinucleotide]
- substrate activity (Pnc1 [10]): not substrates
- kcat (Pnc1 [10]): < 10^−5 ^c s^−1
- kcat (Pnc1 [10]; listed as NAD^+): < 10^−5 s^−1

B1: Pnc1 (Saccharomyces cerevisiae S288C) (protein)
chain: MKTLIVVDMQNDFISPLGSLTVPKGEELINPISDLMQDADRDWHRIVVTRDWHPSRHISFAKNHKDKEPYSTYTYHSPRPGDDSTQEGILWPVHCVKNTWGSQLVDQIMDQVVTKHIKIVDKGFLTDREYYSAFHDIWNFHKTDMNKYLEKHHTDEVYIVGVALEYCVKATAISAAELGYKTTVLLDYTRPISDDPEVINKVKEELKAHNINVVDK
- 13C KIE (Pnc1 WT or mutant [13]; as percent): ~ 1.25%
- 13C KIE (Pnc1 WT or mutant [13]; pH 7.5): 1.0125 ± 0.0004
- kcat (Pnc1 WT or mutant [14]): 0.69 ± 0.04 s⁻¹
- Km [15]: 9.6 ± 2.1 µM
- kcat [15]: 0.69 ± 0.04 s⁻¹
- kcat/Km [15]: 72000 ± 12000 M⁻¹ s⁻¹
- Km [16]: 61 ± 6 µM
- kcat [16]: 1.75 ± 0.05 s⁻¹
- kcat/Km [16]: 29000 ± 2000 M⁻¹ s⁻¹
- kcat/Km [17]: 50 ± 17 M⁻¹ s⁻¹
- Km [18]: 25 ± 7 µM
- kcat [18]: 0.0088 ± 0.0004 s⁻¹
- kcat/Km [18]: 350 ± 90 M⁻¹ s⁻¹
- Km [19]: 157 ± 16 µM
- kcat [19]: 2.56 ± 0.1 s⁻¹
- kcat/Km [19]: 16000 ± 1000 M⁻¹ s⁻¹
- 15N KIE (Pnc1 WT or mutant [20]; as percent): ~ 1.25%
- 15N KIE (Pnc1 WT or mutant [20]; pH 7.5): 1.0122 ± 0.0002

B2: D8N (protein, UniProt P53184 1-216, looked up, variant D8N)
Nicotinamidase: MKTLIVVNMQNDFISPLGSLTVPKGEELINPISDLMQDADRDWHRIVVTRDWHPSRHISFAKNHKDKEPYSTYTYHSPRPGDDSTQEGILWPVHCVKNTWGSQLVDQIMDQVVTKHIKIVDKGFLTDREYYSAFHDIWNFHKTDMNKYLEKHHTDEVYIVGVALEYCVKATAISAAELGYKTTVLLDYTRPISDDPEVINKVKEELKAHNINVVDK
- fold lower kcat compared to Pnc1 WT (Pnc1 WT or mutant [14]): 1150 fold
- kcat (Pnc1 WT or mutant [14]): 0.0006 ± 0.0001 s⁻¹

B3: H53A (protein, UniProt P53184 1-216, looked up, variant H53A)
Nicotinamidase: MKTLIVVDMQNDFISPLGSLTVPKGEELINPISDLMQDADRDWHRIVVTRDWAPSRHISFAKNHKDKEPYSTYTYHSPRPGDDSTQEGILWPVHCVKNTWGSQLVDQIMDQVVTKHIKIVDKGFLTDREYYSAFHDIWNFHKTDMNKYLEKHHTDEVYIVGVALEYCVKATAISAAELGYKTTVLLDYTRPISDDPEVINKVKEELKAHNINVVDK
- kcat (Pnc1 WT or mutant [14]): 0.014 ± 0.002 s⁻¹

B4: D8E (protein, UniProt P53184 1-216, looked up, variant D8E)
Nicotinamidase: MKTLIVVEMQNDFISPLGSLTVPKGEELINPISDLMQDADRDWHRIVVTRDWHPSRHISFAKNHKDKEPYSTYTYHSPRPGDDSTQEGILWPVHCVKNTWGSQLVDQIMDQVVTKHIKIVDKGFLTDREYYSAFHDIWNFHKTDMNKYLEKHHTDEVYIVGVALEYCVKATAISAAELGYKTTVLLDYTRPISDDPEVINKVKEELKAHNINVVDK
- 13C KIE (Pnc1 WT or mutant [13]; pH 7.5): 1.0258 ± 0.0012
- fold lower kcat compared to Pnc1 WT (Pnc1 WT or mutant [14]): 100 fold
- kcat (Pnc1 WT or mutant [14]): 0.0070 ± 0.0001 s⁻¹
- 15N KIE (Pnc1 WT or mutant [20]; pH 7.5): 1.0218 ± 0.0015

B5: K122A (protein, UniProt P53184 1-216, looked up, variant K122A)
Nicotinamidase: MKTLIVVDMQNDFISPLGSLTVPKGEELINPISDLMQDADRDWHRIVVTRDWHPSRHISFAKNHKDKEPYSTYTYHSPRPGDDSTQEGILWPVHCVKNTWGSQLVDQIMDQVVTKHIKIVDAGFLTDREYYSAFHDIWNFHKTDMNKYLEKHHTDEVYIVGVALEYCVKATAISAAELGYKTTVLLDYTRPISDDPEVINKVKEELKAHNINVVDK
- fold lower kcat compared to Pnc1 WT (Pnc1 WT or mutant [14]): 16 fold
- kcat (Pnc1 WT or mutant [14]): 0.044 ± 0.023 s⁻¹

B6: H94A (protein, UniProt P53184 1-216, looked up, variant H94A)
Nicotinamidase: MKTLIVVDMQNDFISPLGSLTVPKGEELINPISDLMQDADRDWHRIVVTRDWHPSRHISFAKNHKDKEPYSTYTYHSPRPGDDSTQEGILWPVACVKNTWGSQLVDQIMDQVVTKHIKIVDKGFLTDREYYSAFHDIWNFHKTDMNKYLEKHHTDEVYIVGVALEYCVKATAISAAELGYKTTVLLDYTRPISDDPEVINKVKEELKAHNINVVDK
- kcat (Pnc1 WT or mutant [14]): 0.020 ± 0.002 s⁻¹

B7: D51A (protein, UniProt P53184 1-216, looked up, variant D51A)
Nicotinamidase: MKTLIVVDMQNDFISPLGSLTVPKGEELINPISDLMQDADRDWHRIVVTRAWHPSRHISFAKNHKDKEPYSTYTYHSPRPGDDSTQEGILWPVHCVKNTWGSQLVDQIMDQVVTKHIKIVDKGFLTDREYYSAFHDIWNFHKTDMNKYLEKHHTDEVYIVGVALEYCVKATAISAAELGYKTTVLLDYTRPISDDPEVINKVKEELKAHNINVVDK
- 13C KIE (Pnc1 WT or mutant [13]; pH 7.5): 1.0075 ± 0.0015
- kcat (Pnc1 WT or mutant [14]): 0.020 ± 0.005 s⁻¹
- 15N KIE (Pnc1 WT or mutant [20]; pH 7.5): 1.0166 ± 0.0018

B8: D8A (protein, UniProt P53184 1-216, looked up, variant D8A)
Nicotinamidase: MKTLIVVAMQNDFISPLGSLTVPKGEELINPISDLMQDADRDWHRIVVTRDWHPSRHISFAKNHKDKEPYSTYTYHSPRPGDDSTQEGILWPVHCVKNTWGSQLVDQIMDQVVTKHIKIVDKGFLTDREYYSAFHDIWNFHKTDMNKYLEKHHTDEVYIVGVALEYCVKATAISAAELGYKTTVLLDYTRPISDDPEVINKVKEELKAHNINVVDK
- fold lower kcat compared to Pnc1 WT (Pnc1 WT or mutant [14]): 767 fold
- kcat (Pnc1 WT or mutant [14]): 0.0009 ± 0.0001 s⁻¹

B9: D51N (protein, UniProt P53184 1-216, looked up, variant D51N)
Nicotinamidase: MKTLIVVDMQNDFISPLGSLTVPKGEELINPISDLMQDADRDWHRIVVTRNWHPSRHISFAKNHKDKEPYSTYTYHSPRPGDDSTQEGILWPVHCVKNTWGSQLVDQIMDQVVTKHIKIVDKGFLTDREYYSAFHDIWNFHKTDMNKYLEKHHTDEVYIVGVALEYCVKATAISAAELGYKTTVLLDYTRPISDDPEVINKVKEELKAHNINVVDK
- 13C KIE (Pnc1 WT or mutant [13]; as percent): ~ 0.5%
- 13C KIE (Pnc1 WT or mutant [13]; pH 7.5): 1.0058 ± 0.0006
- fold more active than the D51A mutant (Pnc1 WT or mutant [14]): 3 fold
- kcat (Pnc1 WT or mutant [14]): 0.064 ± 0.012 s⁻¹
- 15N KIE (Pnc1 WT or mutant [20]; as percent): ~ 0.5%
- 15N KIE (Pnc1 WT or mutant [20]; pH 7.5): 1.0047 ± 0.0006
